Substitutions are numbered along the chain they refer to. Blank lines part the entries; values can stand above or below the binder they belong to.
Key:
[1] = target: human CDH17 as originally expressed in cells (AsPC1, GP2d) (human, UniProt Q12864 23-832); assay: cell-based or functional assay
[2] = target: cynomolgus CDH17-His tag (Acro Biosystems, catalog number CA7-C52H4) (cynomolgus); assay: Octet BLI, antibody on AHC biosensor, His-tagged antigen 200 nM to 3.1 nM

B1: anti-CDH17 recombinant antibody 2F9 (human IgG1) (antibody, V domains shown)
VH: EVQLVESGGGVVRPGGSLRLSCAASGFTFDDYGMSWVRQAPGKGLEWVSGLSWNGGNTYYADSVKGRFTISRDNAKNSLYLQMNSLRAEDTALYYCARGSRYNWNYDAFDIWGQGTLVTVSS
VL: DIQMTQSPSSLSASIGDRVTITCRASQGIRNALGWYQQKPGKAPKRLIYAASNLQSGVPSRFSGSGSGTEFTLTISSLQPEDFATYYCLQHNSYPFTFGPGTKVEIKR
IC50 of indirect killing assay to evaluate the internalization of recombinant anti-CDH17 antibodies into AsPC1 cells [1]: 140 pM

B2: anti-CDH17 recombinant antibody 9E2 (human IgG1) (antibody, V domains shown)
VH: B1 VH with D31N, L51I, S52N, N57S, K65R, N105S
VL: B1 VL with I15V, I29V, N53S
IC50 of indirect killing assay to evaluate the internalization of recombinant anti-CDH17 antibodies into AsPC1 cells [1]: 150 pM

Kd [2]: 2500 pM
kon [2]: 620000 M⁻¹ s⁻¹
B3: anti-CDH17 recombinant antibody 14B12 (human IgG1) (antibody, V domains shown)
VH: QVQLQESGPGLVKPSETLSLTCTVSGGSINTYYRSWIRQPPGKGLEWIGYIYYSGNTNYNPSLKSRVTISADTSKNQFSLNLISVTAADTAMYYCARAQYGEEAFDIWGQGTLVTVSS
VL: DIQMTQSPSSLSASVGDRVTITCRASQSITTYLNWYQQKPGKAPQLLIFAASRLQTGVPSRFSGSGSGTDFTLTISSLLPGDFATYYCQQSYNTPPTFGGGTKVEIKR
IC50 of indirect killing assay to evaluate the internalization of recombinant anti-CDH17 antibodies into AsPC1 cells [1]: 90 pM

B4: anti-CDH17 recombinant antibody 13C7 (human IgG1) (antibody, V domains shown)
VH: QITLKESGPTLVKPTQTLTLTCTFSGFSLSTSGVGVGWIRQPPGKALEWLALIYWNDDKRYRPSLKNRLTITKDTSKNQVVLTMTNMDPVDTATYYCTHYGVTAPFYNWFDPWGQGTLVTVSS
VL: DIQMTQSPSSLSASVGDRVTITCRASQSITSYLNWYQQKPGKAPKLLIYAASSLQSGVPSRFSGSGSGTDFTLTISSLQPEDFATYYCQRSYSTLTFGGGTKVEIKR
IC50 of indirect killing assay to evaluate the internalization of recombinant anti-CDH17 antibodies into AsPC1 cells [1]: 90 pM

B5: anti-CDH17 recombinant antibody 19C7 (human IgG1) (antibody, V domains shown)
VH: B4 VH with F27I, S32G, A51S, R62S, N67S, T75S, T98A, Y100S, V102L, T103A
VL: B4 VL with T30S, S31N, Q38L, K42N, Y49F, Y87F
IC50 of indirect killing assay to evaluate the internalization of recombinant anti-CDH17 antibodies into AsPC1 cells [1]: 90 pM

B6: anti-CDH17 recombinant antibody 4F9 (human IgG1) (antibody, V domains shown)
VH: QVQLQESGPGLVKPSGTLSLTCAVSGGSISSSNWWSWVRQPPGKGLEWIGEIYHSGSTSYNPSLKSRVTISVDKSKNQFSLKLSSVTAADTAVYYCARNDWGFPLDCWGQGTLVTVSS
VL: DIQMTQSPSSLSASVGDRVTITCRASQSISSYLNWYQQKPGKAPKLLIYAASSLQSGVPSRFSGSGSGTHFTLTISSLQPEDFATYYCQQSHNIPITFGQGTRLEIKR
IC50 of indirect killing assay to evaluate the internalization of recombinant anti-CDH17 antibodies into AsPC1 cells [1]: 290 pM

Kd [2]: 15000 pM
koff [2]: 0.0012 s⁻¹
kon [2]: 80000 M⁻¹ s⁻¹
B7: anti-CDH17 recombinant antibody 10E11 (human IgG1) (antibody, V domains shown)
VH: EVQLVQSGTEVKKPGESLKISCKDSGYRFSSYWIGWVRQMPGKGLEWMGIIYPGDSDTRYSPSFQGQVTISADKSISTAYLQWRSLKASDTAMYYCARRGWVNYFDYWGQGTLVTVSS
VL: DIQMTQSPSSVSASVGDRVTITCRASQGISNWLGWYQQKPGKAPKLLIYAASSLQSGVPSRFSGSGSGTDFTLTISSLQPEDFATYYCQQANSFPLTFGGGTKVEIKR
IC50 of indirect killing assay to evaluate the internalization of recombinant anti-CDH17 antibodies into AsPC1 cells [1]: 80 pM

B8: anti-CDH17 recombinant antibody 1H10 (human IgG1) (antibody, V domains shown)
VH: QVQLVESGGGVVQPGRSLRLSCVASGFTFSSYGMHWVRQAPGKGLEWVTFIWYDGSNKNYADSVKGRFTISRDNSKNTLNLQMNSLRVEDTAVYYCARDRYSSGWDVFDYWGQGTLVTVSS
VL: B7 VL with G28D, N31S, G34A, K39Q, L47Q, N92K, L96P, G100Q
IC50 of indirect killing assay to evaluate the internalization of recombinant anti-CDH17 antibodies into AsPC1 cells [1]: 190 pM

B9: anti-CDH17 recombinant antibody 17F3 (human IgG1) (antibody, V domains shown)
VH: EVQLVESGGGLVKSGGSLRLSCAASGFTFSSYSLKWVRQAPGKGLEWVSSISSSSGYIYYADSVKGRFTISRDNAKNSLYLQMNSLRAEDTAMYYCARAVSTIAARPGYYYYYMDVWGKGTLVTVSS
VL: B7 VL with V15I, G28D, N31T, L33F, G34A, S53T, Q55R, S76N
IC50 of indirect killing assay to evaluate the internalization of recombinant anti-CDH17 antibodies into AsPC1 cells [1]: 80 pM

B10: anti-CDH17 recombinant antibody 15A4 (human IgG1) (antibody, V domains shown)
VH: B8 VH with V23A, T28N, T49A, I51V, K58Q, K76N, N80Y, V88A
VL: B7 VL with N31S, G34A, Y49F, D70G, N92K, L96P, G100Q
IC50 of indirect killing assay to evaluate the internalization of recombinant anti-CDH17 antibodies into AsPC1 cells [1]: 1990 pM

Reference: patent US20260217819A1 (HANSOH BIO, published 2026)
